Measured values reported in publication PMC6179994.

Target: full-length rabbit TRPV5 (transient receptor potential vanilloid 5) (rabbit) (UniProt Q9XSM3)
Assay: cryo-EM structure; detergent solubilized TRPV5 (DMNG) incubated 1 h with 10 mM CaCl2 and rat CaM at 1:20 (TRPV5 tetramer:CaM), then SEC; map at 4.4 Å without applied symmetry

Sequence of full-length rabbit TRPV5 (transient receptor potential vanilloid 5) (rabbit) (Q9XSM3 whole entry): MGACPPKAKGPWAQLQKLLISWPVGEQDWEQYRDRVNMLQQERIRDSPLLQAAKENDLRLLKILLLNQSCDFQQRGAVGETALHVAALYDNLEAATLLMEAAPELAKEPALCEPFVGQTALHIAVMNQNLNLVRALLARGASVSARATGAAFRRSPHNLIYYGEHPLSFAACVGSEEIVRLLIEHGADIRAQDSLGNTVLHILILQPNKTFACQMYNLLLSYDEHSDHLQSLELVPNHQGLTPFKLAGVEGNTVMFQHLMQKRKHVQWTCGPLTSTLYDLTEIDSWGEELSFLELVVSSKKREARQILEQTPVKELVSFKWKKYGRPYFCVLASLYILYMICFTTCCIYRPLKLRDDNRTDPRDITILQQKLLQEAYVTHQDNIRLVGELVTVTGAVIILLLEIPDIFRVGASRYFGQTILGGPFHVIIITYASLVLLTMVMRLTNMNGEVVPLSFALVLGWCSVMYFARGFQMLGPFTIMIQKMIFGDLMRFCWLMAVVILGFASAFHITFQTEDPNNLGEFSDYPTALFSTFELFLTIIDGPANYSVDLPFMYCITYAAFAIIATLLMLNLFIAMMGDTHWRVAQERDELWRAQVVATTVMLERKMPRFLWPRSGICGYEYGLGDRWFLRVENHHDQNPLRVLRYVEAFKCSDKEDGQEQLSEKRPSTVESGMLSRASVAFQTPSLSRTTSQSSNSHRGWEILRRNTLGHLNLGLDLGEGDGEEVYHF

rat calmodulin (CaM), calcium-activated (from UniProt P0DP29 1-149) (natural protein)
stoichiometry N (CaM per TRPV5 tetramer): 1
